The Kd is the constant that tells how readily two partners part at equilibrium.

Changes are numbered by the printed parent chain. A value given as a limit tells only on which side of the number the result lay.

Series [1] concerns CeAlaRSm(ΔC) (Caenorhabditis elegans). The series is described as follows: EMSA. To be noted: 5 mM Mg2+; EMSA: 20 mM Hepes pH 7.5, 20 mM KCl, 5 mM MgCl2, 2 mM DTT, 10 min on ice, 0.1 uM ligand; 5% native PAGE in 0.5x TBE at 4 C; protein 0.125-32 uM. On the technique in general: A gel shift assay detects complexes by their altered migration in electrophoresis.
The subject of series [2] is Ce-C-Alam (C-Ala of mitochondrial AlaRS) (Caenorhabditis elegans). Description: EMSA. To be noted: 5 mM Mg2+; EMSA: 20 mM Hepes pH 7.5, 20 mM KCl, 5 mM MgCl2, 2 mM DTT, 10 min on ice, 0.1 uM ligand; 5% native PAGE in 0.5x TBE at 4 C; protein 0.125-32 uM.
Series [3] relates to CeAlaRSm (mitochondrial AlaRS) (Caenorhabditis elegans). Description: EMSA. Particulars: 5 mM Mg2+; EMSA: 20 mM Hepes pH 7.5, 20 mM KCl, 5 mM MgCl2, 2 mM DTT, 10 min on ice, 0.1 uM ligand; 5% native PAGE in 0.5x TBE at 4 C; protein 0.125-32 uM.
The target of series [4] is T1, Ce-C-Alac (C-Ala of cytoplasmic AlaRS) (Caenorhabditis elegans, UniProt O01541 757-968).
T1 sequence: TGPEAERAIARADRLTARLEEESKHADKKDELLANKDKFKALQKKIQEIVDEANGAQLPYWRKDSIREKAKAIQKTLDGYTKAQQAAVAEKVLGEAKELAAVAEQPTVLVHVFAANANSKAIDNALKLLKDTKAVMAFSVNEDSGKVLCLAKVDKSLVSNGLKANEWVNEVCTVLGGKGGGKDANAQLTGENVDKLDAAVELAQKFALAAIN
Description: EMSA; 5 mM Mg2+; EMSA: 20 mM Hepes pH 7.5, 20 mM KCl, 5 mM MgCl2, 2 mM DTT, 10 min on ice, 0.1 uM ligand; 5% native PAGE in 0.5x TBE at 4 C; protein 0.125-32 uM. To be noted: protein: recombinant, tags: His6 (C-terminal, pET21b), label: 5'-32P.

The target of series [5] is T2, Ce-C-Alac globular subdomain (GS) (Caenorhabditis elegans, UniProt O01541 859-968).
T2 sequence: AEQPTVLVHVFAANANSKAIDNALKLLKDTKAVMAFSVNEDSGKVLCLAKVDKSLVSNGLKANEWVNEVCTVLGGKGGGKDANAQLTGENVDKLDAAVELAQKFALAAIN
The series is described as above. Particulars: protein: recombinant, tags: His6 (C-terminal, pET21b), label: 5'-32P.

Series [6] deals with T3, Ce-C-Alac helical subdomain (HS) (Caenorhabditis elegans, UniProt O01541 757-858).
T3 sequence: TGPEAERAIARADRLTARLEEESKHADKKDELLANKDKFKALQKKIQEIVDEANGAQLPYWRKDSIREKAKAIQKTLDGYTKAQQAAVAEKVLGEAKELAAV
Described as above. Particulars: protein: recombinant, tags: His6 (C-terminal, pET21b), label: 5'-32P.

The target of series [7] is T1, Ce-C-Alac (C-Ala of cytoplasmic AlaRS). Described as above. To be noted: protein: recombinant; tags: His6 (C-terminal, pET21b); label: 5'-32P; two hairpins.

Regarding “GGGAUUUUAGUUUAAUAAAAAUAUAUGUUUUGCAUACAUAAGAUAAUAAUUCUACCA [CetRNAmAla]”, the figures for the Kd in series [1], in series [2] and in series [3] were more than 32 µM, 200 nM and 200 nM, respectively.

In the case of “GGGAUUUUAGUUUAGUGGUAAAAUAUAUGUUUUGCAUACAUAAGAUAAUAAUUCUACCA [DLnAla mut (CetRNAmAla with D-loop of CetRNAnAla)]”, the Kd was more than 32 µM in series [1], 4000 nM in series [2] and 1000 nM in series [3].

In turn, “GGGGGUAUAGCUCAGUGGUAGAGCGCUCCCUUAGCAUGGGAGAGGGCUGGGGUUCAAUUCCCCAUACCUCCACCA [CetRNAnAla]” had a binding signal (fold lower affinity than CetRNAmAla) in series [2] of 7.5.

B1: SctRNAnGly (structured_RNA)
RNA: GCGCAAGUGGUUUAGUGGUAAAAUCCAACGUUGCCAUCGUUGGGCCCCCGGUUCGAUUCCGGGCUUGCGCACCA
Take B1: the Kd in series [4] (tRNA cloverleaf) was found to be 0.9 µM.

B2: DLmAla mut (CetRNAnAla with D-loop of CetRNAmAla) (structured_RNA)
RNA: GGGGGUAUAGCUCAAUAAGAGCGCUCCCUUAGCAUGGGAGAGGGCUGGGGUUCAAUUCCCCAUACCUCCACCA
Regarding B2, the Kd in series [4] (tRNA) came to 6.5 µM.

B3: CetRNAmAla (structured_RNA)
RNA: GGGAUUUUAGUUUAAUAAAAAUAUAUGUUUUGCAUACAUAAGAUAAUAAUUCUACCA
Turning to B3, the dissociation constant Kd in series [4] (tRNA) is 4.5 µM.

On to GGGGGUAUGGGGUUCAAUUCCCCAUACCUCCACCA (structured_RNA) [minihelix (T-arm-acceptor stem of CetRNAnAla)], for which the Kd is 9000 ± 200 nM in series [5] (hairpin) and 11 ± 0.1 µM in series [6] (hairpin).

B4: CetRNAnAla (structured_RNA)
RNA: GGGGGUAUAGCUCAGUGGUAGAGCGCUCCCUUAGCAUGGGAGAGGGCUGGGGUUCAAUUCCCCAUACCUCCACCA
B4: the Kd in series [4] (tRNA cloverleaf) is 0.8 µM; in series [5] (tRNA cloverleaf) it was 500 nM; in series [6] (tRNA cloverleaf) it was 2 µM.

B5: CetRNAnAla A14G15 mutant (to GA) (structured_RNA)
RNA: B4 RNA with A14G, G15A
As to B5, the Kd in series [4] (tRNA, conformation disrupted) came to 10 µM.

B6: CetRNAnAla G18G19C56 mutant (structured_RNA)
RNA: B4 RNA with G17A, G18A, C55U
As for B6, the Kd in series [4] (tRNA) was 8 µM.

B7: CetRNAnAla A14G15C48 mutant (structured_RNA)
RNA: B4 RNA with A14G, G15A, C47U
Turning to B7, the Kd in series [4] (tRNA) came to 2 µM.

Turning to GCUCCCUGGUAGAGCGCUCCCUUAGCAUGGGAG (structured_RNA) [biloop AG mutant (A14G15 to CC)], the binding signal in series [7] was 4 fold lower affinity than WT biloop.

As to GCUCAGUGGUAGAGCGCUCCCUUAGCAUGGGAG (structured_RNA) [biloop (D-arm-anticodon arm of CetRNAnAla)], the Kd in series [4] (two hairpins) amounted to 2 µM; in series [5] (two hairpins), 2000 ± 400 nM; in series [6] (two hairpins), 6 ± 0.4 µM.

The values are drawn from paper PMC10485164, “Sequence-specific targeting of Caenorhabditis elegans C-Ala to the D-loop of tRNAAla”.
